Laboratory results as given in US9290544B2, “Methods for making and using molecular switches involving circular permutation” (priority 2004, dated 2016).
“And” between values parts separate entries of the source, which are not always exact repeats. Identical values can stand only once.

Key:
[1] = Carbenicillin hydrolysis by purified RG13, 25° C.; type: biochemical; conditions: 50 μM carbenicillin
Method: (§1) All kinetic assays were performed at 25° C. in the presence of 100 mM sodium phosphate buffer, pH 7.0. Ten μl of enzyme stock was added to 1.59 ml buffer (containing the saccharide, if desired). After incubation for 30 seconds, 0.4 ml of 5× substrate was added and the absorbance at the appropriate wavelength was recorded using the Cary50 UV-VIS spectrophotometer. The wavelength monitored was 486 nm, 240 nm, and 232 nm for nitrocefin, carbenicillin, and ampicillin respectively. From the initial rate of reaction the kinetic constants were determined using Eadie-Hofstee plots. […] The rate data was consistent with a small hysteretic effect (Brennan et al. 1994) and not substrate inhibition as preincubation of the enzyme with the substrate for one minute prevented the lag from occurring upon addition of more substrate. Therefore, the steady state parameters for nitrocefin hydrolysis in the absence of maltose were determined by measuring the rate at 1-2 minutes (well after the lag) and correcting the substrate concentration by subtracting the amount of substrate hydrolyzed. In all cases the extent of reaction at the point the rate was measured was less than 25%. In the presence of maltose, no lag was observed.

[2] = Maltose affinity by intrinsic protein fluorescence; type: binding
Method: Maltose affinity for RG13 (in presence and absence of 10 mM carbenicillin) and RG13(1329W) (in the absence of substrate) was determined using intrinsic protein fluorescence measured on a Photon Technology QuantaMaster QM-4 spectrofluorometer. Fluorescence spectra were obtained at 25° C. at different concentrations of maltose in 50 mM sodium phosphate buffer, pH 7.0, containing 100 mM sodium chloride. The protein concentration was 50-100 nM. Excitation was at 280 nm. The quenching in fluorescence intensity at 341 nm caused by maltose was used in Eadie-Hofstee equivalent plots to determine Kd using the following equation:
(§2) [formula] where ΔF is the change in fluorescence intensity, ΔFmax is the difference in fluorescence between no maltose and saturating amounts of maltose and [L] is the maltose concentration. The fluorescence quenching of RG13(1329W/A96W) upon addition of maltose was insufficient to accurately determine a Kd by this method. The dissociation constant for maltose and RG13(I329W) in the presence of saturating carbenicillin (2 mM) was determined by measuring the initial rate of carbenicillin hydrolysis as a function of maltose concentration. The apparent dissociation constant in the presence of subsaturating concentrations of nitrocefin (25 μM) for all three proteins was determined by measuring the initial rate of nitrocefin hydrolysis as a function of maltose concentration.

[3] = Dissociation constant for maltose using change in velocity of nitrocefin hydrolysis as signal; conditions: 22° C.; read-out: Kd for maltose binding
Method: (§3) A 6×His tag was added to the C-terminus of RG-200-13 (also termed “RG13” in Examples below) and the fusion was purified as previously described (Guntas and Ostermeier 2004). The protein was purified to approximately 60% purity. The kinetic constants and binding constants were determined from Eadie-Hofstee plots and Eadie plot equivalents, respectively, using a spectrophotometric assay for nitrocefin hydrolysis. Initial rates for nitrocefin hydrolysis were determined from absorbance at 486 nm monitored as a function of time. The enzyme was incubated at the assay temperature in the absence or presence of saccharide for four minutes prior to performing the assay. All assays contained 100 mM sodium phosphate buffer, pH 7.0. The dissociation constant for maltose was determined using change in velocity of nitrocefin hydrolysis as a signal.

[4] = Apparent dissociation constant for maltose from initial rate of nitrocefin hydrolysis; type: binding; conditions: 25° C.
Method: as §2

[5] = 96-well colorimetric nitrocefin hydrolysis screen of lysates with or without 5 mM maltose; type: biochemical; conditions: 50 μM nitrocefin
Method: The naïve library was plated on LB agar plates supplemented with 200 μg/ml ampicillin and 50 mM maltose and incubated at 37° C. overnight. From these plates, 1056 colonies were picked to inoculate 1 ml LB media (supplemented with 50 μg/ml chloramphenicol and 1 mM IPTG) in 96-well format. After incubation overnight at 37′C, each culture was lysed using 0.1 ml Popculture reagent, 40 units of rLysozyme, and 2.5 units of benzonase nuclease. Lysates were centrifuged to pellet the insoluble material and the soluble fractions were assayed in 96-well format for nitrocefin hydrolysis in the presence or absence of 5 mM maltose using a colorimetric assay for nitrocefin hydrolysis (Posey et al. 2002). The assays were carried out at room temperature using the Spectramax-384 Plus microplate reader (Molecular Devices) in the presence of 100 mM sodium phosphate buffer and 50 μM nitrocefin in a 200 μl reaction volume.

[6] = Hydrolysis of ampicillin by RG-200-13 with and without 5 mM maltose; type: biochemical; conditions: pH 7.0, 22° C.
Method: as §3
Maltose binding had the largest effect on cephalothin (of the substrates tested), with the velocity of cephalothin hydrolysis being 32-fold higher in the presence of maltose than in its absence.

[7] = Steady state kinetics of nitrocefin hydrolysis, purified RG13 proteins, 25° C.; type: biochemical
Method: as §1

[8] = effector maltose 5 mM (saturating)
[9] = effector maltose 5 mM (saturating), nitrocefin, 25° C.
[10] = effector β-cyclodextrin 5 mM, nitrocefin, 25° C.
[11] = no effector, nitrocefin, pH 7.0, 25° C.

For “RG13: MBP-BLA fusion switch MBP[1-316]-BLA[227-286]-GSGGG-BLA[24-226]-S-MBP[319-370]; SEQ ID NO: 61”, the “Rate increase with maltose” value [1] was 12 fold, the Kd ([2]; 10 mM carbenicillin, 25° C., read-out: Kd maltose, Saturating Carbenicillin, IPF) was 1.3 ± 0.5 µM and the Kd ([2]; intrinsic protein fluorescence, 100 mM NaCl, 50 mM NaPO4, pH 7.0, 25° C., read-out: Kd maltose, No Substrate) was 5.5 µM and 5 to 6 µM. For the same substance, the Kd ([2]; text of Example 3, read-out: Dissociation constant for maltose in the presence of saturating amounts of carbenicillin) was ~1 µM, the Kd [3] was ~5 µM and the Kd [4] was 6.7 ± 0.03 µM. The “Increase of initial velocity of nitrocefin hydrolysis in the presence of maltose” value [5] was 17 fold, the “Approximate fold increase in velocity of ampicillin hydrolysis in the presence of 5 mM maltose” value ([6]; substrate ampicillin 100 μM) was ~26 fold and the “Approximate fold increase in velocity of ampicillin hydrolysis in the presence of 5 mM maltose” value ([6]; substrate ampicillin 500 μM) was ~10 fold. For the same substance, the “Increase in the reaction rate on addition of subsaturating maltose” value ([7]; 20 μM nitrocefin, 2.5 nM RG13, 2 ml, 20 μl of 1 M maltose added (FIG. 7B)) was 10 fold, the “Km Ratio (with effector)/(without effector)” value ([7]; effector maltose 5 mM) was 0.12 ± 0.03 and the “kcat Ratio (with effector)/(without effector)” value [7, 8] was 3 and 3.1 ± 0.6. For the same substance, the “kcat/Km Ratio (with effector)/(without effector)” value [7, 8] was 25 and 25 ± 7, the Km [7, 9] was 68 ± 4 µM and the kcat [7, 9] was 620 ± 60 s⁻¹ and 620 ± 30 s⁻¹. The “Km Ratio (with effector)/(without effector)” value ([7]; effector β-cyclodextrin 5 mM) was 1.6 ± 0.4, the “kcat Ratio (with effector)/(without effector)” value ([7]; effector β-cyclodextrin 5 mM) was 2.9 ± 0.6 and the “kcat/Km Ratio (with effector)/(without effector)” value ([7]; effector β-cyclodextrin 5 mM) was 1.8 ± 0.6. For the same substance, the Km [7, 10] was 870 ± 90 µM, the kcat [7, 10] was 590 ± 60 s⁻¹ and the “Decrease of Km with saturating amounts of maltose” value ([7]; nitrocefin, 25° C.) was 8 fold. For the same substance, the Km [7, 11] was 550 ± 120 µM, the kcat [7, 11] was 200 ± 40 s⁻¹ and the “Effect of non-ligands on rate of nitrocefin hydrolysis” value ([7]; sucrose, lactose and galactose 5 mM, 20 μM nitrocefin (FIG. 7A)) was “no effect”. The “Increase in the rate of nitrocefin hydrolysis upon addition of ligand” value ([7]; β-cyclodextrin 5 mM, 20 μM nitrocefin (FIG. 7A)) was 2 fold.
